Measurements as given in the supplement of paper PMC9170038.

Assays:
[1] = system: MS2 coat protein; assay: apparent KD of MS2 coat protein, switch OFF state (with FMN for OFF switches, without FMN for ON switches); designed switch direction (-1 OFF switch, 1 ON switch): 1; higher = weaker reporter binding; conditions: FMN input: 0 or 200 uM; Eterna round: R93 (includes R88 designs)
Outline: (§1)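 Values are apparent KD, taken as the median for each design of fits to normalised binding curves from individual clusters. The designed RNA switches were transcribed on-chip from Illumina sequencing clusters and exposed to SNAP-549-labelled MS2 coat protein at twofold increasing amounts from 0.7 or 1.5 nM to 3 µM. Titration used 100 mM Tris-HCl pH 7.5, 80 mM KCl and 4 mM MgCl2, without or with constant ligand.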

[2] = system: MS2 coat protein; assay: apparent KD of MS2 coat protein, switch ON state; designed switch direction (-1 OFF switch, 1 ON switch): 1; higher = weaker reporter binding; conditions: FMN input: 0 or 200 uM; Eterna round: R93 (includes R88 designs)
Outline: as §1

Sequence | apparent KD of MS2 coat protein [1] [nM] | apparent KD of MS2 coat protein [2] [nM]
AGAAAACAUGAGGAUCACCCAUGUAGAAACAUGGGAGGAUAUACAAAGACGAAAGUCAAAGUAGAAGGCCUAAAGA [Mat - Same State 1 - Mod - D161] | 152 | 207
AAAACACAUGAGGAUCACCCAUGUAAAAACAUGAGAGGAUAUGCAUGGAAAACAUGCUAUGCAGAAGGCUCAUGUG [SS1 - 3] | 34.6 | 23.2
AGAAAACAUGAGGAUCACCCAUGUGAUAAUAUGGGAGGAUAUACGGAGACGAAAGUCGACGUAGAAGGCCUAAAGA [Garnet 49] | 82.8 | 42.9
AAUAGGAAGAGAGAGGAUAUCCAAAGGAAAACAUGAGGAUCACCCAUGUAAAAGGUAGGAAAUUGGGAGAAGGCUCAAGAGAGAG [salish99-ss2-073] | 39.9 | 9.55
AAAAAAUAAAAAAAGGAUAUAAUCGAUGGAACAUGAGGAUCACCCAUGUGACAUCGAAAAAUAAAAAAGAAGGAAAAAUAAAAAA [SS2: MS2 24] | 11.2 | 17.6
CGGAGACAUGAGGAUCACCCAUGUGAGAAGAGGCGAGGAUAUCGAAAGAAAGAAGAGAAACGAGAAGGCGCGAGUG [salish99-SS1-074] | 32.9 | 21.9
UGAAGACAUGAGGAUCACCCAUGUGGGAUUAUGGGAGGAUAUACAAAGACGAGAGUCAGAGUAGAAGGCCUAGGAC [salish99-ss1-119(!)] | 72.9 | 32.2
GAAAAACAUGAGGAUCACCCAUGUAAAAAUAUGGGAGGAUAUUCAAACACGAAAGUCAAAGAAGAAGGCCUAAAAG [Garnet 2] | 207 | 30.4
UUUAAUUAUACGAAGGAUAUCGGUAAUUAGACAUGAGGAUCACCCAUGUUAUAUGGUUAAAUAUUCGAGAAGGUCGCGGGUGAAC [JR_SS002_Sub507] | 33.6 | 47.8
GAGUACAUAGUACAGGAUAUAUGAAUAGUUACAUGAGGAUCACCCAUGUGCAUUUAUAUGCGCACAUAGAAGGGUGGUAGGUAUC [Mat - Same state - Malcolm Mod - D127] | 29.4 | 38.8
AGAAAACAUGAGGAUCACCCAUGUAGAAAUAUGGGAGGAUAUACAAAGACGAAAGUCGAAGUAGAAGGCCUAAAGA [Mat - Same State 1 - Meechl mod - D123] | 58.7 | 22
UGGAGACAUGAGGAUCACCCAUGUGAGAAGAGGCGAGGAUAUCGAAAGAAAGAAGAGAAACGAGAAGGCGCGAGUA [salish99-SS1-038] | 39.3 | 32.1
AAAAAACAUGAGGAUCACCCAUGUGAAAAUAUGGGAGGAUAUACAAAGACGAAAGUCAAAGUAGAAGGCCUAAAAA [Mat - Same State 1 - Eli mod - D86] | 132 | 18.4
AAAACACAUGAGGAUCACCCAUGUAGAAAUACUGGAGGAUAUGCUAAAACGAAAGACAAUGUAGAAGGCCGAAAAG [saturn 11] | 208 | 71.6
AGGAAACAUGAGGAUCACCCAUGUAAAAAUAUGGGAGGAUAUACGAAGACGAAAGUGAGAGUAGAAGGCCUAAAAG [Garnet 8] | 87.7 | 30.9
CUUAGGAAGAGAGAGGAUAUCCAAAGGAAAACAUGAGGAUCACCCAUGUAAAAGGUAGGAAAUUGGGAGAAGGCUCAAGAGAGAG [salish99-ss2-080] | 31.8 | 26
UGAAGACAUGAGGAUCACCCAUGUGGGAUUAUGGGAGGAUAUACAAAGACGAGAGUCAGAGUAGAAGGCCUAGGAA [salish99-ss1-116(!)] | 68 | 36.1
UAUCAUUACACGAAGGAUAUCGAUAAUAGAACAUGAGGAUCACCCAUGUGAAAUAAAAUACAGAACGAGAAGGUCGAGGGUGAAG [JR_SS002_Sub703] | 16.8 | 19.7
AAAUAACAUGAGGAUCACCCAUGUCAAAUAAAUCGAGGAUAUGGGCCCGGGUUCCGGGAGCCAGAAGGCGAAAAGA [Teledimaqu] | 41.6 | 16.9
UAAAAAACGUAUGAGGAUAUCCAAAAUAAAACAUGAGGAUCACCCAUGUGAAUAAAAUAACAAUGGGAGAAGGCAUACGUAUCAU [Mat - Same state - Malcolm Mod - D138] | 20.8 | 46.3
AAAAAAAAAAGUGAGGAUAUGUGAUCGGUGACAUGAGGAUCACCCAUGUGAGGCCUUCGGGCCGGACAGAAGGCACAAAAAAAAA [Same State 2-X] | 257 | 78.1
